Laboratory results taken from the supplement of paper PMC9233669.
This sample holds only a part of the variants without activity.

Tests used:
[1] = test system: biotinyl-Val-oxazolone; test: self-aminoacylation, catalytic enhancement (BVO) (fold over background); higher = more active; k-Seq, kA / k0A0; sequences stand for … in GGGAAUGGAUCCACAUCUACGAAUUC…UUCACUGCAGACUUGACGAAGCUG
Procedure, shortened: (§1)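 Working in 50 μL HEPES/NaCl/KCl/MgCl2/CaCl2 buffer with 5% acetonitrile at pH 6.9–7.0, mutagenized RNA pools (0.43 μM; 21-nt variable region) were reacted with 2–1250 μM of each biotinyl-aminoacyl-oxazolone for 90 minutes at room temperature. Streptavidin capture followed, with quantification by triplicate qPCR and Illumina sequencing. Catalytic enhancement is reported as median kA over the uncatalyzed rate, the low-activity peak of a bimodal Gaussian fit to the data.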

[2] = test system: biotinyl-Phe-oxazolone; test: self-aminoacylation, catalytic enhancement (BFO) (fold over background); higher = more active; k-Seq, kA / k0A0; sequences stand for … in GGGAAUGGAUCCACAUCUACGAAUUC…UUCACUGCAGACUUGACGAAGCUG
Procedure, shortened: as §1

[3] = test system: biotinyl-Ile-oxazolone; test: self-aminoacylation, catalytic enhancement (BIO) (fold over background); higher = more active; k-Seq, kA / k0A0; sequences stand for … in GGGAAUGGAUCCACAUCUACGAAUUC…UUCACUGCAGACUUGACGAAGCUG
Procedure, shortened: as §1

[4] = test system: biotinyl-Leu-oxazolone; test: self-aminoacylation, catalytic enhancement (BLO) (fold over background); higher = more active; k-Seq, kA / k0A0; sequences stand for … in GGGAAUGGAUCCACAUCUACGAAUUC…UUCACUGCAGACUUGACGAAGCUG
Procedure, shortened: as §1

[5] = test system: biotinyl-Met-oxazolone; test: self-aminoacylation, catalytic enhancement (BMO) (fold over background); higher = more active; k-Seq, kA / k0A0; sequences stand for … in GGGAAUGGAUCCACAUCUACGAAUUC…UUCACUGCAGACUUGACGAAGCUG
Procedure, shortened: as §1

[6] = test system: biotinyl-Trp-oxazolone; test: self-aminoacylation, catalytic enhancement (BWO) (fold over background); higher = more active; k-Seq, kA / k0A0; sequences stand for … in GGGAAUGGAUCCACAUCUACGAAUUC…UUCACUGCAGACUUGACGAAGCUG
Procedure, shortened: as §1

Sequence | self-aminoacylation [1] | self-aminoacylation [2] | self-aminoacylation [3] | self-aminoacylation [4] | self-aminoacylation [5] | self-aminoacylation [6]
CUACUACAAUCAAUCGGUCUG [Fam1A.1 aminoacylation ribozyme variant] | 0.682 | 0.981 | 0.767 | 0.699 | 0.616 | 0.669
CUACUCCAAACAAUCGCUCUG [Fam1A.1 aminoacylation ribozyme variant] | 0.884 | 1.32 | 1.11 | 0.949 | 0.783 | 0.596
CUACUCCAAACAAUCGGUCUA [Fam1A.1 aminoacylation ribozyme variant] | 0.808 | 2.18 | 0.767 | 0.746 | 0.638 | 1.05
CUACUCCAAACAAUGGGUCUG [Fam1A.1 aminoacylation ribozyme variant] | 0.863 | 0.772 | 0.948 | 0.799 | 0.784 | 0.754
CUACUCCAAACAGUCGGUCUG [Fam1A.1 aminoacylation ribozyme variant] | 1.06 | 3.1 | 0.953 | 1.1 | 0.958 | 0.323
CUACUCCAAACGAUCGGUCUG [Fam1A.1 aminoacylation ribozyme variant] | 0.812 | 0.979 | 0.854 | 0.91 | 0.643 | 0.445
CUACUCCUAACAAUCGGUCUG [Fam1A.1 aminoacylation ribozyme variant] | 0.774 | 0.659 | 0.748 | 0.667 | 0.504 | 0.441
CUACUGCAAACAAUCGCUCUG [Fam1A.1 aminoacylation ribozyme variant] | 1.08 | 3.05 | 1.2 | 1.2 | 0.898 | 0.702
CUACUGCAAACAAUCGGUCUA [Fam1A.1 aminoacylation ribozyme variant] | 0.871 | 0.688 | 0.876 | 0.858 | 0.868 | 0.72
CUACUGGAAACAAUCGGUCUG [Fam1A.1 aminoacylation ribozyme variant] | 0.837 | 0.507 | 0.887 | 0.885 | 0.933 | 0.514
CUACUUAAAACAAUCAGUCUG [Fam1A.1 aminoacylation ribozyme variant] | 0.915 | 0.689 | 0.877 | 0.715 | 0.723 | 0.512
CUACUUAAAACAAUCGGUAUG [Fam1A.1 aminoacylation ribozyme variant] | 0.574 | 0.513 | 0.556 | 0.53 | 0.55 | 0.339
CUACUUAAAACAAUCGGUCAG [Fam1A.1 aminoacylation ribozyme variant] | 0.79 | 0.552 | 0.636 | 0.66 | 0.703 | 0.384
CUACUUAAAACAAUCGGUGUG [Fam1A.1 aminoacylation ribozyme variant] | 0.684 | 0.821 | 0.596 | 0.96 | 0.72 | 1.17
CUACUUAAAACAAUGGGUCUG [Fam1A.1 aminoacylation ribozyme variant] | 1.05 | 0.9 | 1.05 | 1.03 | 1.28 | 0.653
CUACUUAAAUCAAUCGGUCUG [Fam1A.1 aminoacylation ribozyme variant] | 0.91 | 0.911 | 0.887 | 0.793 | 0.702 | 0.691
CUACUUCAAAAAAUCGCUCUG [Fam1A.1 aminoacylation ribozyme variant] | 0.484 | 0.901 | 0.539 | 0.486 | 0.492 | 0.727
CUACUUCAAAAAAUCGGUCUA [Fam1A.1 aminoacylation ribozyme variant] | 0.697 | 4.37 | 0.842 | 0.79 | 0.725 | 2.39
CUACUUCAAAAGAUCGGUCUG [Fam1A.1 aminoacylation ribozyme variant] | 0.724 | 1.08 | 0.973 | 0.859 | 0.728 | 0.938
CUACUUCAAACAAACGGGCUG [Fam1A.1 aminoacylation ribozyme variant] | 0.934 | 1.65 | 1.2 | 0.999 | 0.993 | 0.862
CUACUUCAAACAAACGGUCAG [Fam1A.1 aminoacylation ribozyme variant] | 0.682 | 0.883 | 0.73 | 0.581 | 0.6 | 0.787
CUACUUCAAACAAACUGUCUG [Fam1A.1 aminoacylation ribozyme variant] | 0.717 | 0.742 | 0.684 | 0.547 | 0.562 | 0.5
CUACUUCAAACAACCCGUCUG [Fam1A.1 aminoacylation ribozyme variant] | 1.04 | 0.796 | 0.906 | 0.911 | 0.657 | 0.923
CUACUUCAAACAACCGGUCUC [Fam1A.1 aminoacylation ribozyme variant] | 0.728 | 0.745 | 0.933 | 0.619 | 0.724 | 0.734
CUACUUCAAACAACUGGUCUG [Fam1A.1 aminoacylation ribozyme variant] | 0.654 | 0.753 | 0.734 | 0.678 | 0.603 | 0.661
CUACUUCAAACAAGCAGUCUG [Fam1A.1 aminoacylation ribozyme variant] | 0.775 | 1.06 | 0.882 | 0.794 | 0.751 | 0.577

Sequence | self-aminoacylation [1] | self-aminoacylation [2] | self-aminoacylation [3] | self-aminoacylation [4] | self-aminoacylation [5] | self-aminoacylation [6]
CUACUUCAAACAAGCGGUCUG [Fam1A.1 aminoacylation ribozyme variant] | 0.871 | 0.819 | 0.933 | 0.825 | 0.822 | 0.693
CUACUUCAAACAAUAGUUCUG [Fam1A.1 aminoacylation ribozyme variant] | 0.511 | 0.553 | 0.624 | 0.532 | 0.53 | 0.325
CUACUUCAAACAAUCAAUCUG [Fam1A.1 aminoacylation ribozyme variant] | 0.767 | 1.73 | 0.794 | 0.602 | 0.683 | 0.669
CUACUUCAAACAAUCAGUCUA [Fam1A.1 aminoacylation ribozyme variant] | 0.9 | 15.7 | 0.871 | 0.776 | 0.841 | 5.04
CUACUUCAAACAAUCAGUGUG [Fam1A.1 aminoacylation ribozyme variant] | 0.972 | 2.23 | 0.867 | 0.745 | 0.936 | 0.975
CUACUUCAAACAAUCAGUUUG [Fam1A.1 aminoacylation ribozyme variant] | 0.73 | 15.7 | 0.803 | 0.861 | 0.779 | 6.56
CUACUUCAAACAAUCCCUCUG [Fam1A.1 aminoacylation ribozyme variant] | 0.525 | 0.842 | 0.74 | 0.558 | 0.68 | 0.44
CUACUUCAAACAAUCCGUAUG [Fam1A.1 aminoacylation ribozyme variant] | 0.81 | 0.759 | 0.723 | 0.769 | 0.65 | 0.715
CUACUUCAAACAAUCCGUCUG [Fam1A.1 aminoacylation ribozyme variant] | 0.806 | 1.92 | 0.788 | 0.661 | 0.673 | 1.26
CUACUUCAAACAAUCCGUUUG [Fam1A.1 aminoacylation ribozyme variant] | 0.77 | 0.704 | 0.694 | 0.674 | 0.594 | 0.87
CUACUUCAAACAAUCGAUCUC [Fam1A.1 aminoacylation ribozyme variant] | 0.799 | 2.76 | 0.502 | 0.5 | 0.322 | 0.881
CUACUUCAAACAAUCGGUACG [Fam1A.1 aminoacylation ribozyme variant] | 0.577 | 2.05 | 0.461 | 0.425 | 0.396 | 0.839
CUACUUCAAACAAUCGGUAUA [Fam1A.1 aminoacylation ribozyme variant] | 0.688 | 1.24 | 0.772 | 0.661 | 0.607 | 0.725
CUACUUCAAACAAUCGGUAUU [Fam1A.1 aminoacylation ribozyme variant] | 0.828 | 1.15 | 0.854 | 0.74 | 0.852 | 0.759
CUACUUCAAACAAUCGGUUAG [Fam1A.1 aminoacylation ribozyme variant] | 0.614 | 2.89 | 0.706 | 0.493 | 0.591 | 1.46
CUACUUCAAACAAUCGGUUCG [Fam1A.1 aminoacylation ribozyme variant] | 0.767 | 2.97 | 0.687 | 0.63 | 0.615 | 0.98
CUACUUCAAACAAUCGGUUUG [Fam1A.1 aminoacylation ribozyme variant] | 1.1 | 43.4 | 1.07 | 1.54 | 1.08 | 23.9
CUACUUCAAACAAUCUGUAUG [Fam1A.1 aminoacylation ribozyme variant] | 0.73 | 0.672 | 0.642 | 0.607 | 0.647 | 0.471
CUACUUCAAACAAUGGGUGUG [Fam1A.1 aminoacylation ribozyme variant] | 1.08 | 0.967 | 1.29 | 1.34 | 1.32 | 0.947
CUACUUCAAACAAUUCGUCUG [Fam1A.1 aminoacylation ribozyme variant] | 0.859 | 0.738 | 0.827 | 0.628 | 0.722 | 0.602
CUACUUCAAACACUCGCUCUG [Fam1A.1 aminoacylation ribozyme variant] | 0.818 | 1.16 | 0.924 | 0.708 | 1.06 | 0.468
CUACUUCAAACACUCGGUCUU [Fam1A.1 aminoacylation ribozyme variant] | 1.74 | 1.56 | 1.71 | 1.49 | 1.81 | 1.18
CUACUUCAAACAGUCGGCCUG [Fam1A.1 aminoacylation ribozyme variant] | 1.71 | 2.1 | 1.63 | 1.78 | 1.77 | 1.39
CUACUUCAAACAGUCGGUCUA [Fam1A.1 aminoacylation ribozyme variant] | 0.893 | 0.734 | 0.938 | 0.817 | 0.856 | 0.576
CUACUUCAAACAGUCGGUCUC [Fam1A.1 aminoacylation ribozyme variant] | 0.8 | 0.732 | 0.903 | 1.02 | 0.765 | 0.456
